Assay [1] concerns the target ASOR receptor (asialoglycoprotein receptor) on primary mouse hepatocytes (mouse) (UniProt P34927).
The target is the same in assay [2]. The source holds these as a separate data set.
Assay [3] has the same target. To be noted: scale: % conversion of phenylalanine to tyrosine.
Assay [4] addresses adenovirus receptor on primary mouse hepatocytes (mouse).
Assay [5] addresses ASOR receptor (asialoglycoprotein receptor) on primary mouse hepatocytes (mouse) (UniProt P34927). The source holds these as a separate data set.
Assay [6] concerns the target ASOR receptor on HepG2 cells.

Where only a bound is given, the exact number is not on record here.

Turning to “ASOR/poly-L-lysine conjugate (ASOR/PLL conjugate)”, in assay [1], the percentage of cells expressing β-gal, ASOR-PLL/DNA complexes with free adenovirus, in the presence of a 1000-fold excess of free ASOR was < 2 % of cells; the percentage of cells staining blue, complex containing adenovirus conjugated with PLL at high EDC concentrations, in the presence of a 1000-fold excess of free ASOR is < 30 % of cells; the percentage of cells staining positive for beta-gal, complex containing adenovirus conjugated with PLL at low EDC concentrations, in the presence of a 1000-fold excess of free ASOR was 80 % of cells. In assay [2], this substance returned a canine factor IX (cFIX) level in supernatants of primary mouse hepatocytes after delivery of pCMV/cFIX with the high EDC ADV-PLL/DNA complex (µg/10^6 cells/24 hours) of 0.79. In assay [3], the phenylalanine hydroxylase activity (percent conversion of phenylalanine to tyrosine) in PAH deficient mouse hepatocytes after delivery of CMV/hPAH DNA in complex form with adenovirus was 26.
As to “adenovirus (d1312) conjugated with PLL at low EDC concentrations”, the percentage of cells staining positive for beta-gal after delivery with the low EDC ADV-PLL/DNA complex, in the presence of a 1000-fold excess of free ASOR in assay [4] is 80 % of cells.
With asialoorosomucoid (ASOR) (ligand), the figures for the internalized ^3 H counts after a 2 hour incubation (dose-response of ^3 H-ASOR uptake) (molecules/cell) in assay [5] and in assay [6] were 320000 and 150000, respectively.

The record behind these values is patent publication US6150168.
